The target in the data set is HIV-1 integrase (Human immunodeficiency virus 1 (BH10)) (UniProt P03366). Nature of the data set: FP filter.
The mark [1] stands for this setting: 50 mM NaCl, stated about same Kd as 30N RNA.
Where [2] appears, read: nitrocellulose filter, 250 mM NaCl, printed as 20x10^-6, data not shown.

U5 21-mer ss: the dissociation constant Kd runs as follows: under setting [1], 25 nM; under setting [2], more than 20000 nM.

Regarding U5 21-mer ds, the Kd runs as follows: under setting [1], 25 nM; under setting [2], more than 20000 nM.

By Kd is commonly meant the constant that tells how readily two partners part at equilibrium.

The record behind these values is patent publication US5587468.
